Data reported in paper PMC12446779, “Structural basis of transglucosylation in dextran dextrinase, a homolog of anomer-inverting GH15 glucoside hydrolases” (The Journal of Biological Chemistry, 2025).
Substitutions are numbered along the chain they refer to. Names and notes keep the numbering of the source.

B1: Δ382C (DDase-Δ382C) (Gluconobacter oxydans) (protein)
chain: MADNSDEQFVASDYTLLGDATDDPNGMVDMPAGQEPATTNAVPSGVEYNFLAATAGYYTVSFAYQNTANAAAYEQLSINGQNEPGVVEFDQTSGASTGTAYASVYLKAGLNSVELNNQTTDETNGLTPVPEDQLQASPAFQIGTSTVAAGASPSQETSAQSLAISNQTDMQAFVQGESMAPKQQWTFGPSLSELHVGSNDELNQLDFNAVWFRNVTPGQQAETYSPYFKSNESFDANGVLHVNYGAYSPTGQALPVQIQATYANVPNENLIVENLSLTNQNASGTQPLVWDVMNATGINPGEVSSTTWDPTHNAWIVTEDQGSGKSPLYLAIGDYQVSNSTHAAGVDGVNVRGSYSLSSGASGNPSLNAPDQGVIGGFENNGTMVGSSSGASGTNLAVGTTDSDVTLNPGQTVDLSYYLSTATSLSQLDANLDKYTNTVGSTTSSTPMTDATGASAASSWTQQTATAWDDTLNQAYNLAGSTETSGQAATAASGQTLDPTSSAAAQSAYRSSLINILQAQSPEYGSFMASTNPSYEYKVWVRDSAATAIGLDDAGLTQPADKFWRWMASVEQNGMNATYSGNASGTFSTNYGEFDQNLPIGFVAPENDSQGLFLIGSYRHYEQMLSEGQTQQAQSFISDPTVRQALVNSANWIQENIGSNGLGPADYSIWEDMYGYHTFTQVTYAEGLNAASQLASAMGEGNQAQTWATGAETIKDAILRPTTASTPGLWNAQEGHFVEMINPNGTIDNTIDADTNIAAVFGLVSPTSIYATENAQAVENALTQDNFGLSRYQNETFYQSSQWSPGGTYEAQGISPSWPQMTAYDSIVSMDSGNTTQANNDLSWIEQSYDNGGTPPGESYDWARGQPIESTSSEPVTASWYVQDLLNSTGQTSTLMPAITGQ
notes: C-terminal truncation Met1-Ser902 (domains N1, N2, HLH, A); N-terminal His6 tag (…) kept; E. coli BL21-CodonPlus(DE3)-RIL; 921 residues with tag; dimer 195,604 Da
B2: Δ382C (DDase-Δ382C) (Gluconobacter oxydans; E671Q) (protein)
chain: B1 chain with E671Q
notes: as for B1

Substrate: OC[C@H]1O[C@H](F)[C@H](O)[C@@H](O)[C@@H]1O
Experiment: fluoride release, colorimetric (Alfusone), Michaelis-Menten fit
Format: biochemical, Gluconobacter oxydans
Conditions: 130 mM sodium acetate pH 4.2, 35 °C, 0.2 mg/ml BSA
Excerpt: fluoride release, colorimetric (Alfusone), Michaelis-Menten fit on Δ382C (DDase-Δ382C)

| Protein | Km | kcat | kcat/Km |
| --- | --- | --- | --- |
| B1 | 40 ± 4 mM | 15 ± 1 s⁻¹ | 380 M⁻¹ s⁻¹ |
| B2 | 1.5 ± 0.1 mM | 0.025 ± 0.002 s⁻¹ | 17 M⁻¹ s⁻¹ |
